Results taken from US7183376.

Target: human CD28 receptor on T cells (human, UniProt P10747 19-220)
Assay: cell-based or functional assay

T cell proliferation (3H-thymidine), transfected 293 HEK cells: ~3 fold
B1: Round 2 CD28BP-15 (ligand)
chain: ITPKSVTKRVKETVMLSCDYNTSTEELTSLRIYWQKDSKMVLAILPGKVQVWPEYKNRTITDMNDNPRIVILALRPSDSGTYTCVIQKPVLKGAYKLEHLASVRLMIRADFPVPTINDLGNPSPNIRRLICSTSGGFPRPHLYWLENGEELNATNTTVSQDPGTELYMISSELDFNVTNNHSIVCLIKYGELSVSQIFPWSKPKQEPPIDQLPFWVIIPVSGALVLTAVVLYCLACRHVARWKRTRRNEETVGTERLSPIYLGSAQSSG
